What was measured:
[1] = target: T1, cynomolgus monkey FcγRIIa3 extracellular domain, C-terminal His-tag (cynomolgus monkey); assay: SPR (Biacore); KD of SG1 / KD of variant;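 further: relative to parent M103205H795-SG1 carrying the SG1 human heavy chain constant region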
T1 construct: also called cyno FcγRIIa3; cynoFcgRIIa3
T1 chain: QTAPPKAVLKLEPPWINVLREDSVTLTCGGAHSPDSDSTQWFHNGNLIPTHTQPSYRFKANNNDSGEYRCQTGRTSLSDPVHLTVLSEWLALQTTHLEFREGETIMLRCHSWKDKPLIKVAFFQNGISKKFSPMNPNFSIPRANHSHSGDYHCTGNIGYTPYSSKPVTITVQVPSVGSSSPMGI
Method: (§1) The kinetic analysis of interactions between these antibodies and FcγR was carried out using BIACORE® T200 or BIACORE® 4000 (GE Healthcare). HBS-EP+ (GE Healthcare) was used as the running buffer, and the measurement temperature was set to 25° C. A chip produced by immobilizing Protein A. Protein A/G or mouse anti-human IgG kappa light chain (BD Biosciences) onto a Series S Sensor Chip CM4 or CM5 (GE Healthcare) by the amine-coupling method was used. […] After the measurement, the antibody captured on the chip was washed off by allowing reaction with 10 mM glycine-HCl, pH1.5 and 25 mM NaOH so that the chip was regenerated and used repeatedly. The sensorgrams obtained as measurement results were analyzed by the 1:1 Langmuir binding model using the BIACORE® Evaluation Software to calculate the binding rate constant ka (L/mol/s) and dissociation rate constant kd (l/s), and the dissociation constant KD (mol/L) was calculated from these values. […] Regarding such interactions, KD values were calculated using the following 1:1 binding model described in BIACORE® T100 Software Handbook BR1006-48 Edition AE.
(§2) The behavior of interacting molecules according to the 1:1 binding model on BIACORE® can be described by Equation 1: Req=C·R max/(KD+C)+RI, wherein, Req is a plot of steady-state binding levels to analyte concentration. C is concentration, RI is bulk refractive index contribution in the sample, and Rmax is analyte binding capacity of the surface. When this equation is rearranged, KD can be expressed as Equation 2: KD=C·Rmax/(Req−RI)−C. KD can be calculated by substituting the values of Rmax, RI, and C into Equation 1 or Equation 2. From the current measurement conditions, RI=0, C=2 μmol/L can be used.

[2] = target: T2, cynomolgus monkey FcγRIIb extracellular domain, C-terminal His-tag (cynomolgus monkey); assay: SPR (Biacore); KD of SG1 / KD of variant;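 further: relative to parent M103205H795-SG1 carrying the SG1 human heavy chain constant region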
T2 construct: also called cyno FcγRIIb; cynoFcγRIIb
T2 chain: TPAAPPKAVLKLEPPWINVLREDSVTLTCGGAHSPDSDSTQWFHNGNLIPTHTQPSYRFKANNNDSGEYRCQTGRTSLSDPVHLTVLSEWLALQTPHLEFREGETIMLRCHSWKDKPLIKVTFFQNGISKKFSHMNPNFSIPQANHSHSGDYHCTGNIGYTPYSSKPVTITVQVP
Method: as §1, §2

[3] = target: T3, cynomolgus monkey FcγRIIa1 extracellular domain, C-terminal His-tag (cynomolgus monkey); assay: SPR (Biacore); KD of SG1 / KD of variant;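 further: relative to parent M103205H795-SG1 carrying the SG1 human heavy chain constant region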
T3 construct: also called cyno FcγRIIa1; cynoFcgRIIa1
T3 chain: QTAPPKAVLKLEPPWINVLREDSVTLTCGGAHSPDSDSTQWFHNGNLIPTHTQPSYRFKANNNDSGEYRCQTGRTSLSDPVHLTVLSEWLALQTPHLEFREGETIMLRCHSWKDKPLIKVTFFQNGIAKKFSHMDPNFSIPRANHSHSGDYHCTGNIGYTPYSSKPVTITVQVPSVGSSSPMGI
Method: as §1, §2

[4] = target: T4, cynomolgus monkey FcγRIIIaS extracellular domain, C-terminal His-tag (cynomolgus monkey, UniProt Q8SPW2 21-206 at identity 1.00)); assay: SPR (Biacore); KD of SG1 / KD of variant;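 further: relative to parent M103205H795-SG1 carrying the SG1 human heavy chain constant region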
T4 construct: also called cyno FcγRIIIaS; cynoFcγRIIIaS
T4 chain: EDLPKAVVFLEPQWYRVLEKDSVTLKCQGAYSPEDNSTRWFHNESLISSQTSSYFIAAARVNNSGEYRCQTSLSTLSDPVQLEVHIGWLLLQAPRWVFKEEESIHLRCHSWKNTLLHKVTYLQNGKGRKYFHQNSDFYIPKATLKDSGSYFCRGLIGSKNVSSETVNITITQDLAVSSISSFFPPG
Method: as §1, §2

[5] = target: T5, human FcγRIIb extracellular domain, C-terminal His-tag (human, UniProt P31994 43-217); assay: SPR (Biacore); KD of SG1 / KD of variant
T5 construct: also called human FcgRIIb; FcgRIIb
T5 sequence: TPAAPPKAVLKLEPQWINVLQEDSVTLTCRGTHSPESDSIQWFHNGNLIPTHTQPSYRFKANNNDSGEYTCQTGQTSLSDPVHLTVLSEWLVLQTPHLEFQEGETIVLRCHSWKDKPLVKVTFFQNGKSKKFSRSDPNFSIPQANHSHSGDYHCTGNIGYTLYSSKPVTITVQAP
Method: as §1, §2

[6] = target: T6, cynomolgus monkey FcγRIIa2 extracellular domain, C-terminal His-tag (cynomolgus monkey); assay: SPR (Biacore); KD of SG1 / KD of variant
T6 construct: also called cyno FcγRIIa2; cynoFcgRIIa2
T6 chain: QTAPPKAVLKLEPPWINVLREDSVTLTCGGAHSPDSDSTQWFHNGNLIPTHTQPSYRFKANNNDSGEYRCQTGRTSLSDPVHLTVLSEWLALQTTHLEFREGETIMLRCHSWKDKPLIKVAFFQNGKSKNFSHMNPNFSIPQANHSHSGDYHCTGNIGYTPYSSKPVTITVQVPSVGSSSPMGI
Method: as §1, §2

[7] = target: T7, human FcγRIIaR extracellular domain, C-terminal His-tag (human, UniProt P12318 34-217); assay: SPR (Biacore); KD of SG1 / KD of variant
T7 construct: also called human FcγRIIa (type R); FcgRIIaR
T7 chain: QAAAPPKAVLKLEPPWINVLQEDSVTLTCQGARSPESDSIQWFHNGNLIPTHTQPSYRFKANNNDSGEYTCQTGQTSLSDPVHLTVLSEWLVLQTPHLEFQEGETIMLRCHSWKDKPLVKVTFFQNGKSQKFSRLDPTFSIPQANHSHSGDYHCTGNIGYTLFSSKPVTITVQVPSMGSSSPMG
Method: as §1, §2

[8] = target: T1, cynomolgus monkey FcγRIIa3 …; assay: SPR (Biacore), antibody captured, FcgR analyte
[9] = target: T2, cynomolgus monkey FcγRIIb extracellular …; assay: SPR (Biacore), antibody captured, FcgR analyte
[10] = target: T8, human FcγRIIIaV extracellular domain, C-terminal His-tag (human, UniProt P08637 17-208); assay: SPR (Biacore), antibody captured, FcgR analyte
T8 construct: also called human FcgRIIIaV; FcgRIIIaV

[11] = target: T3, cynomolgus monkey FcγRIIa1 …; assay: SPR (Biacore), antibody captured, FcgR analyte
[12] = target: T4, cynomolgus monkey FcγRIIIaS …; assay: SPR (Biacore), antibody captured, FcgR analyte
[13] = target: T5, human FcγRIIb extracellular domain, …; assay: SPR (Biacore), antibody captured, FcgR analyte
[14] = target: T9, human FcγRIIaH extracellular domain, C-terminal His-tag (human, UniProt P12318 34-217); assay: SPR (Biacore), antibody captured, FcgR analyte
T9 construct: also called human FcγRIIa (type H); FcgRIIaH
T9 sequence: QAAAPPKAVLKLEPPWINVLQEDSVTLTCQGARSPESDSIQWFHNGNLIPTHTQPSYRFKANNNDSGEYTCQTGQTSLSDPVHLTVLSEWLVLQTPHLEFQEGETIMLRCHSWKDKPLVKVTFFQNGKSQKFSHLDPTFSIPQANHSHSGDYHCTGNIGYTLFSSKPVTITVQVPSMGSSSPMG

[15] = target: T6, cynomolgus monkey FcγRIIa2 …; assay: SPR (Biacore), antibody captured, FcgR analyte
[16] = target: T7, human FcγRIIaR extracellular domain, …; assay: SPR (Biacore), antibody captured, FcgR analyte
[17] = target: T10, cynomolgus monkey FcγRIIa1 extracellular domain, C-terminal His-tag (cynomolgus monkey); assay: SPR; FcgR bound per captured antibody, normalized to SG1
T10 construct: also called cyno FcγRIIa1; FcgRIIa1
T10 chain: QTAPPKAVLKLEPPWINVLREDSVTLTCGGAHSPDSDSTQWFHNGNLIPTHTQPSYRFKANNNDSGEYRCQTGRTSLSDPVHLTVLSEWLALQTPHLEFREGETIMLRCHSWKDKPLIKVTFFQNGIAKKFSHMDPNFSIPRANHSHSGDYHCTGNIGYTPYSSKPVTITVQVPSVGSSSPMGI
Method: as §1
(§3) The value of the amount of FcγR binding was obtained by dividing the amount of FcγR bound by the amount of each antibody captured.

[18] = target: T11, cynomolgus monkey FcγRIIa3 extracellular domain, C-terminal His-tag (cynomolgus monkey); assay: as above
T11 construct: also called cyno FcγRIIa3; FcgRIIa3
T11 chain: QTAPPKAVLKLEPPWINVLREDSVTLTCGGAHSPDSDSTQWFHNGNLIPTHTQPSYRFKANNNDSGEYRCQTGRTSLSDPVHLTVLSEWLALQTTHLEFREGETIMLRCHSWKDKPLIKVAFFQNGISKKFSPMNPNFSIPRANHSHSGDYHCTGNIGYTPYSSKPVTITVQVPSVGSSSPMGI
Method: as §1, §3

[19] = target: T12, cynomolgus monkey FcγRIIa2 extracellular domain, C-terminal His-tag (cynomolgus monkey); assay: as above
T12 construct: also called cyno FcγRIIa2; FcgRIIa2
T12 chain: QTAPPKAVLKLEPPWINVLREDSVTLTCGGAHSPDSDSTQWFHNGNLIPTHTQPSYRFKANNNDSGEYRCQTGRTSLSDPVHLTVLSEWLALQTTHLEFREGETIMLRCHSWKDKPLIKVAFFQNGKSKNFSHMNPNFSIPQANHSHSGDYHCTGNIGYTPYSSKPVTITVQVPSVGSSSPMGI
Method: as §1, §3

[20] = target: T13, cynomolgus monkey FcγRIIb extracellular domain, C-terminal His-tag (cynomolgus monkey); assay: as above
T13 construct: also called cyno FcγRIIb; cynoFcγRIIb
T13 chain: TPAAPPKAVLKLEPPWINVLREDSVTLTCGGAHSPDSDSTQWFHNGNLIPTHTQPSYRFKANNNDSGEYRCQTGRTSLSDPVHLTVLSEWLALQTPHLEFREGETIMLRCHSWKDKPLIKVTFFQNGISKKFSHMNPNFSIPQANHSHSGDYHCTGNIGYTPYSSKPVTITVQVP
Method: as §1, §3

T8 sequence (P08637 17-208 F176V): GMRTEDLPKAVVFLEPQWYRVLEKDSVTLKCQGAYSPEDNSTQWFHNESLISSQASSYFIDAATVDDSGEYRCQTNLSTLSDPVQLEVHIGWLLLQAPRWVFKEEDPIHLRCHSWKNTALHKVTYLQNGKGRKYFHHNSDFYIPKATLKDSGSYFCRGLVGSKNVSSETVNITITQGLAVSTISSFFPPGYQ

B1: M103205H795-MY144/M103202L889-SK1 (antibody, human IgG1, kappa)
heavy: QVTLKESGPVLVKPTETLTLTCTVSGIDLSHDDISWVRQAPGKGLEWVGIISYAGSTYYASWAKGRLTISKDTSKNQVVLTMTNMDPVDTATYYCARGVPAYSHGGDLWGQGTLVTVSSASTKGPSVFPLAPSSKSTSGGTAALGCLVKDYFPEPVTVSWNSGALTSGVHTFPAVLQSSGLYSLSSVVTVPSSSLGTQTYICNVNHKPSNTKVDKKVEPKSCDKTHTCPPCPAPELLNGPSVFLFPPKPKDTLMISRTPEVTCVVVDVSDEDPEVKFNWYVDGVEVHNAKTKPREEQYNSTYRVVSVLTVLHQDWLNGKEYKCKVSNKALPAPIEKTISKAKGQPREPQVYTLPPSREEMTKNQVSLTCLVKGFYPSDIAVEWESNGQPENNYKTTPMVLDSDGSFFLYSKLTVDKSRWQQGNVFSCSVMHEALHNHYTQKSLSLSP
light: DIVMTQSPATLSLSPGERATLSCTSSQSVYHANWLSWFQQKPGQPPKLLIYWASTLAYGVPSRFSGSGSGTDFTLTISSLQPEDAATYYCAGGYGGGRYAFGQGTKVEIKRTVAAPSVFIFPPSDEQLKSGTASVVCLLNNFYPREAKVQWKVDNALQSGNSQESVTEQDSKDSTYSLSSTLTLSKADYEKHKVYACEVTHQGLSSPVTKSFNRGEC
notes: P369M is read as a misprint of P396M
KD fold (SG1 = 1) [1]: 4.5 fold | KD fold (SG1 = 1) [2]: 4.1 fold | KD fold (SG1 = 1) [3]: 3.6 fold | KD fold (SG1 = 1) [4]: 0.16 fold | KD fold (SG1 = 1) [5]: 6.2 fold | KD fold (SG1 = 1) [6]: 5.7 fold | KD fold (SG1 = 1) [7]: 0.8 fold | Kd [8]: 3800 nM | Kd [9]: 440 nM | Kd [10]: 7700 nM | Kd [11]: 890 nM | Kd [12]: 2300 nM | Kd [13]: 740 nM | Kd [14]: 650 nM | Kd [15]: 820 nM | Kd [16]: 13000 nM

B2: M103205H795-SG171/M103202L889-SK1 (antibody, human IgG1, kappa)
heavy: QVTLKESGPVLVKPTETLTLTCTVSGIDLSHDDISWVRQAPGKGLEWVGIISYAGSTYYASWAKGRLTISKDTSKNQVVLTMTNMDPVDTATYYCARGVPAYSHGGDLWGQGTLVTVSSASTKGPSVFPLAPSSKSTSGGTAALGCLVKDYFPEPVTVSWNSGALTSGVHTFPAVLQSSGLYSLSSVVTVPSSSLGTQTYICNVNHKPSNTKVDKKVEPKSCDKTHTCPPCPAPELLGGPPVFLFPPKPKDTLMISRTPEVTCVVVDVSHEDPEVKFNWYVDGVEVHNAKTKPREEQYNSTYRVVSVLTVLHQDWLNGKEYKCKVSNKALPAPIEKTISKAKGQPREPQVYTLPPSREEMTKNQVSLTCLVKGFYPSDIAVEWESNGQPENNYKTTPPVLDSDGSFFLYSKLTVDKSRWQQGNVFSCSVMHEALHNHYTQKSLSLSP
light: DIVMTQSPATLSLSPGERATLSCTSSQSVYHANWLSWFQQKPGQPPKLLIYWASTLAYGVPSRFSGSGSGTDFTLTISSLQPEDAATYYCAGGYGGGRYAFGQGTKVEIKRTVAAPSVFIFPPSDEQLKSGTASVVCLLNNFYPREAKVQWKVDNALQSGNSQESVTEQDSKDSTYSLSSTLTLSKADYEKHKVYACEVTHQGLSSPVTKSFNRGEC
notes: also called S239P
amount of FcgR binding (SG1 = 100) [17]: 17 SG1 = 100 | amount of FcgR binding (SG1 = 100) [18]: 18 SG1 = 100 | amount of FcgR binding (SG1 = 100) [19]: 20 SG1 = 100 | amount of FcgR binding (SG1 = 100) [20]: 20 SG1 = 100

Source: patent US20200317768A1 (published 2020)
